The subject of the assay is Human umbilical vein endothelial cells (HUVEC). Kind of assay: Endothelial cell migration assay (transwell) on ECM substrates. The assay is classed as cell-based. As to conditions: inventors' data, no details given. The method, then: Human umbilical vein endothelial cells (HUVEC) were grown in Endothelial Growth Medium (containing 2% fetal bovine serum, bFGF and VEGF) (Clonetics, San Diego, Calif.). To render HUVECs quiescent for Rac and/or Rho assays, monolayers of endothelial cells were incubated for 18 hrs in Endothelial Basal Medium supplemented with 0.1% serum (Clonetics). Cell migration and adhesion assays on ECM substrates were performed as previously described in Kim et al. (S. Kim et al., Amer. J. Biol. Chem., 275:33920-33928 (2000); and S. Kim et al., Amer. J. Path., 156:1345-1362 (2000)).
Migration assays were performed essentially as described (Kim, et. al., 2000). […] HUVECS (25,000) were added to the upper chamber of inserts in migration buffer (Hepes buffered M199 medium containing 1% BSA, 2 mM MgCl2, 2 mM CaCl2 and 0.2 mM MnCl2) containing 25 μg/ml of various antibodies. In some experiments, 250 μM dibutyryl cAMP was placed in the upper and lower chambers of the transwell. Cells were allowed to migrate from the upper to the lower chamber for four hours at 37° C. The number of cells which had migrated were counted in three representative high power (200×) fields per insert. The data are presented as number of cells migrating+/−standard error of the mean. […] In this case, migrated transfected cells were identified by fluorescent microscopy and counted.

B1: Csk: enzyme that phosphorylates Src on Tyr 527 and inhibits its activity (protein, UniProt P41240 2-450, looked up)
Tyrosine-protein kinase CSK: SAIQAAWPSGTECIAKYNFHGTAEQDLPFCKGDVLTIVAVTKDPNWYKAKNKVGREGIIPANYVQKREGVKAGTKLSLMPWFHGKITREQAERLLYPPETGLFLVRESTNYPGDYTLCVSCDGKVEHYRIMYHASKLSIDEEVYFENLMQLVEHYTSDADGLCTRLIKPKVMEGTVAAQDEFYRSGWALNMKELKLLQTIGKGEFGDVMLGDYRGNKVAVKCIKNDATAQAFLAEASVMTQLRHSNLVQLLGVIVEEKGGLYIVTEYMAKGSLVDYLRSRGRSVLGGDCLLKFSLDVCEAMEYLEGNNFVHRDLAARNVLVSEDNVAKVSDFGLTKEASSTQDTGKLPVKWTAPEALREKKFSTKSDVWSFGILLWEIYSFGRVPYPRIPLKDVVPRVEKGYKMDAPDGCPPAVYEVMKNCWHLDAAMRPSFLQLREQLEHIKTHELHL
In the case of B1, the cell migration result was “causes inhibition of cell migration”.

Values taken from US20060241067A1, “Methods For inhibiting angiogenesis, cell migration, cell adhesion, and cell survival” (priority 2002, published 2006).
